From patent US20030084477, “Genes enhancing disease resistance in plants” (published 2003)
Where a chain is given by its changes, count along the chain named.

B1: wild type gln2 PR-box 2x (dsDNA)
DNA 1: CATAAGAGCCGCCACTAAAATAAGACCGATCAAATAAGAGCCGCCAT
DNA 2: ATGGCGGCTCTTATTTGATCGGTCTTATTTTAGTGGCGGCTCTTATG
B2: mutated PR-box 2x (dsDNA)
DNA 1: B1 DNA 1 with G8T, G11T, G40T, G43T
DNA 2: B1 DNA 2 with C5A, C8A, C37A, C40A

Columns and labels:
GST-Pti5 [1] = biological target: T1, GST-Pti5 (Solanum lycopersicum, UniProt O04681 O04681:1-161); assay: EMSA; 25 mM Hepes pH 7.5, 40 mM KCl, 0.1 mM EDTA, 10% glycerol, 1 mM DTT, poly(dA-dT), room temp; WT sequence printed with stray 'to' in the middle; conditions: tags: N-terminal GST (pGEX, E. coli PR745; cDNA nt 82-782); label: 32P end label
T1 sequence (O04681 whole entry, the tested form may be a part, one chain of several): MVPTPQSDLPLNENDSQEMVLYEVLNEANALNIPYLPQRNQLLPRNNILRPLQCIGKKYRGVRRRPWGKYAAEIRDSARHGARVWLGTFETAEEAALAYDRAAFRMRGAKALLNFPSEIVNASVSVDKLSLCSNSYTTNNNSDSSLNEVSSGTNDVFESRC
Description: (§1) The wild type gln2 PR-box 2x ([…] to […]) and mutated PR-box 2x ([…]) were end-labeled by 32P as described by Ausubel, F. M., Brent, R., Kingston, R. E., Moore, D. D., Seidman, J. G., Smith, J. A., and Struhl, K. (1994). Current Protocols in Molecular Biology. (New York: Greene Publish Associates/John Wiley and Sons). Four fmol of probe was mixed with each of the purified GST-fusion proteins in a buffer containing 2 μg poly(dA-dT) (dA-dT), 25 mM Hepes (PH7.5), 40 mM KCl, 0.1 mM EDTA, 10% glycerol, and 1 mM DTT, incubated at room temperature for 15 minutes, and electrophoresed on a 4% polyacrylamide gel in 0.25×TBE buffer. Ohme-Takagi, M. and Shinshi, H. (1995). Ethylene-inducible DNA-binding proteins that interact with an ethylene-responsive element. Plant Cell 7, 173-182. The gel was subsequently dried and exposed to x-ray film. […] In contrast to GST-Pti5 and GST-Pti6, neither GST-Ptil nor GST itself bound to the PR-box.

GST-Pti5 [2] = biological target: T1, GST-Pti5; assay: EMSA; no binding detected; conditions: tags: N-terminal GST (pGEX, E. coli PR745; cDNA nt 82-782); label: 32P end label
Description: as §1

Binder	binding result (GST-Pti5 [1])	binding result (GST-Pti5 [2])
B1	binds	
B2		no binding
